Assay [1] concerns the target Tumor necrosis factor alpha (UniProt P01375).
For assay [2] the target is unchanged. The source holds these as a separate data set.

Sequence of UniProt P01375 (P01375 whole entry): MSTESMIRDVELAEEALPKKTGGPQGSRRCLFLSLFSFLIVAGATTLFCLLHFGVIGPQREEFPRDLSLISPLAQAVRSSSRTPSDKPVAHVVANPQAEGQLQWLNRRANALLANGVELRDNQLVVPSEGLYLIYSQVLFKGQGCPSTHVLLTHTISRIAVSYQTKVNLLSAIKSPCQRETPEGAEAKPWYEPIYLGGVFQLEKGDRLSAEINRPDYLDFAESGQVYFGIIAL

Take “Etanercept reference product Enbrel (Fc fusion)”: in assay [1], the % Potency (redox: after serum-like redox conditions), NFκB-luciferase reporter gene assay; Enbrel (1034018), 1.8% C78-C88 came to 96%; the % Potency (redox: after serum-like redox conditions), NFκB-luciferase reporter gene assay; Enbrel (1034842), 1.8% C78-C88 came out at 95%; the % Potency (redox: after serum-like redox conditions), NFκB-luciferase reporter gene assay; Enbrel (1040542), 1.7% C78-C88 was 107%; the % Potency (redox: after serum-like redox conditions), NFκB-luciferase reporter gene assay; Enbrel (1062728), 1.8% C78-C88 amounted to 98%. For the same substance, in assay [1], the % Potency (redox: after serum-like redox conditions), NFκB-luciferase reporter gene assay; Enbrel (J13793), 1.6% C78-C88 amounted to 100%; the % Potency (untreated), relative to reference standard, NFκB-luciferase reporter gene assay; Enbrel (1034018), 2.8% C78-C88 amounted to 81%; the % Potency (untreated), relative to reference standard, NFκB-luciferase reporter gene assay; Enbrel (1034842), 2.5% C78-C88 is 85%; the % Potency (untreated), relative to reference standard, NFκB-luciferase reporter gene assay; Enbrel (1040542), 2.6% C78-C88 worked out at 89%. Besides, in assay [1], the % Potency (untreated), relative to reference standard, NFκB-luciferase reporter gene assay; Enbrel (1062728), 2.5% C78-C88 was determined as 85% and the % Potency (untreated), relative to reference standard, NFκB-luciferase reporter gene assay; Enbrel (J13793), 2.3% C78-C88 came to 92%.

In assay [1], “Etanercept biosimilar GP2015 (Erelzi) (Fc fusion)” returned a % Potency (redox: after serum-like redox conditions), NFκB-luciferase reporter gene assay; GP2015 DP (30986553), 1.5% C78-C88 of 103%; a % Potency (redox: after serum-like redox conditions), NFκB-luciferase reporter gene assay; GP2015 DP (30986557), 1.3% C78-C88 of 101%; a % Potency (redox: after serum-like redox conditions), NFκB-luciferase reporter gene assay; GP2015 DP (31161503), 1.7% C78-C88 of 98%; a % Potency (redox: after serum-like redox conditions), NFκB-luciferase reporter gene assay; GP2015 DS (B280815), 1.2% C78-C88 of 103%. Moreover, in assay [1], the % Potency (redox: after serum-like redox conditions), NFκB-luciferase reporter gene assay; GP2015 process intermediate (CAP.E), 1.6% C78-C88 turned out to be 98%; the % Potency (untreated), relative to reference standard, NFκB-luciferase reporter gene assay; GP2015 DP (30986553), 1.2% C78-C88 came out at 98%; the % Potency (untreated), relative to reference standard, NFκB-luciferase reporter gene assay; GP2015 DP (30986557), 1.8% C78-C88 came out at 97%; the % Potency (untreated), relative to reference standard, NFκB-luciferase reporter gene assay; GP2015 DP (31161503), 1.2% C78-C88 was found to be 100%. Further, in assay [1], the % Potency (untreated), relative to reference standard, NFκB-luciferase reporter gene assay; GP2015 DS (B280815), 1.0% C78-C88 amounted to 99% and the % Potency (untreated), relative to reference standard, NFκB-luciferase reporter gene assay; GP2015 process intermediate (CAP.E), 3.4% C78-C88 is 76%. In assay [2], this substance displayed a potency (TNFα inhibition NFκB-luciferase reporter gene assay in HEK293 cells); main peak of large scale HIC separation of GP2015 of 100%.

With “GP2015 late eluting HIC fraction (etanercept enriched in incorrectly disulfide-bridged variants) (Fc fusion)”, in assay [1], the % Potency (redox: after serum-like redox conditions that reshuffle the incorrect bridges), NFκB-luciferase reporter gene assay; GP2015 late eluting HIC fraction, 2.0% C78-C88 worked out at 93% and the % Potency (untreated), relative to reference standard, NFκB-luciferase reporter gene assay; GP2015 late eluting HIC fraction, 5.5% C78-C88 was 58%.

Values taken from publication PMC5479810.
